According to article doi:10.1101/2021.05.05.442573, “Relief of ParB autoinhibition by parS DNA catalysis and ParB recycling by CTP hydrolysis promote bacterial centromere assembly” (bioRxiv, 2021):
Where a chain is given by its changes, count along the chain named. In names and notes the source's numbering stands.

Target: the molecule itself
Assay: cross-linking; in vitro BMOE cysteine cross-linking of purified ParB (10 uM monomer, 1 mM BMOE, 5 min RT; 150 mM NaCl, 50 mM Tris-HCl pH 7.5, 5 mM MgCl2); without ligand, with 1 mM CTP or CTPγS, with 1 uM 40 bp parS DNA, or with both; SDS-PAGE, Coomassie

B1: ParB(R105C, H133C), purified (natural protein, B. subtilis, UniProt P26497 1-282, looked up)
chain: MAKGLGKGINALFNQVDLSEETVEEIKIADLRPNPYQPRKHFDDEALAELKESVLQHGILQPLIVRKSLKGYDIVAGERRFRAAKLAGLDTVPAIVRELSEALMCEIALLENLQREDLSPLEEAQAYDSLLKCLDLTQEQLAKRLGKSRPHIANHLRLLTLPENIQQLIAEGTLSMGHGRTLLGLKNKNKLEPLVQKVIAEQLNVRQLEQLIQQLNQNVPRETKKKEPVKDAVLKERESYLQNYFGTTVNIKRQKKKGKIEIEFFSNEDLDRILELLSERES
notes: Purification as in Soh et al., 2019; source: E. coli BL21-Gold (DE3), untagged, purified (ammonium sulfate, heparin, HiTrap SP, Superdex 200)
binding result: binds

B2: ParB(T22C, E78Q), purified (natural protein, B. subtilis, UniProt P26497 1-282, looked up)
chain: B1 chain with T22C, E78Q, C105R, C133H
notes: the combination is not spelled out for the purified protein; also called EQ mutant; source: E. coli BL21-Gold (DE3), untagged, purified (ammonium sulfate, heparin, HiTrap SP, Superdex 200)
binding result: binds

B3: ParB(T22C), purified (natural protein, B. subtilis, UniProt P26497 1-282, looked up)
chain: B1 chain with T22C, C105R, C133H
notes: as for B1
binding result: binds

B4: ParB(T22C, E111Q), purified (natural protein, B. subtilis, UniProt P26497 1-282, looked up)
chain: B1 chain with T22C, C105R, E111Q, C133H
notes: as for B2
binding result: binds

B5: ParB(A102C, H133C), purified (natural protein, B. subtilis, UniProt P26497 1-282, looked up)
chain: B1 chain with A102C, C105R
notes: as for B1
binding result: binds
